Source: the supplement of paper PMC5998384

Columns and labels:
[1] = tested on: HeLa Kyoto; test: melting temperature (median over replicates), in situ; higher = more thermally stable
[2] = tested on: HeLa Kyoto; test: thermal stability score vs G1/S (z-score of summed log2 fold changes over temperatures); higher = more thermally stable than in G1/S
[3] = tested on: HeLa Kyoto; test: solubility change mitosis vs G1/S (difference of NP-40 vs SDS log2 ratios) (log2 ratio difference); higher = more soluble in mitosis
[4] = tested on: HeLa Kyoto; test: solubility in G1/S (NP-40 vs SDS abundance) (log2 ratio); higher = more soluble; conditions: cell cycle stage: G1/S
[5] = cell cycle stage: early G1 (4.5 h after nocodazole release)
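For melting temperature (median over replicates), in situ in this document: HeLa Kyoto cells synchronized by double thymidine or nocodazole block, proteins quantified by TMT10plex mass spectrometry, three independent biological replicates.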
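For solubility change mitosis vs G1/S (difference of NP-40 vs SDS log2 ratios) in this document: synchronized HeLa Kyoto cells (double thymidine block for G1/S, nocodazole release for mitosis), protein amounts in NP-40 versus SDS lysates quantified by mass spectrometry, three biological replicates.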
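For solubility in G1/S (NP-40 vs SDS abundance) in this document: HeLa Kyoto cells arrested at G1/S by double thymidine block, proteins quantified by TMT10plex mass spectrometry in mild NP-40 versus SDS extracts, three biological replicates.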
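For thermal stability score vs G1/S (z-score of summed log2 fold changes over temperatures) in this document: synchronized HeLa Kyoto cells, proteins quantified by TMT10plex mass spectrometry, three biological replicates, mitosis taken 0.5 h after nocodazole release, G1/S directly after double thymidine block.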

| Substance | melting temperature ([1]; cell cycle stage: G1/S) [°C] | melting temperature ([1]; cell cycle stage: mitosis) [°C] | thermal stability score [2, 5] | thermal stability score ([2]; cell cycle stage: mitosis) | solubility change mitosis (log2) [3] | solubility in G1/S (log2) [4] |
| --- | --- | --- | --- | --- | --- | --- |
| MSGTKPDILWAPHHVDRFVVCDSELSLYHVESTVNSELKAGSLRLSEDSAATLLSINSDTPYMKCVAWYLNYDPECLLAVGQANGRVVLTSLGQDHNSKFKDLIGKEFVPKHARQCNTLAWNPLDSNWLAAGLDKHRADFSVLIWDICSKYTPDIVPMEKVKLSAGETETTLLVTKPLYELGQNDACLSLCWLPRDQKLLLAGMHRNLAIFDLRNTSQKMFVNTKAVQGVTVDPYFHDRVASFYEGQVAIWDLRKFEKPVLTLTEQPKPLTKVAWCPTRTGLLATLTRDSNIIRLYDMQHTPTPIGDETEPTIIERSVQPCDNYIASFAWHPTSQNRMIVVTPNRTMSDFTVFERISLAWSPITSLMWACGRHLYECTEEENDNSLEKDIATKMRLRALSRYGLDTEQVWRNHILAGNEDPQLKSLWYTLHFMKQYTEDMDQKSPGNKGSLVYAGIKSIVKSSLGMVESSRHNWSGLDKQSDIQNLNEERILALQLCGWIKKGTDVDVGPFLNSLVQEGEWERAAAVALFNLDIRRAIQILNEGASSEKGDLNLNVVAMALSGYTDEKNSLWREMCSTLRLQLNNPYLCVMFAFLTSETGSYDGVLYENKVAVRDRVAFACKFLSDTQLNRYIEKLTNEMKEAGNLEGILLTGLTKDGVDLMESYVDRTGDVQTASYCMLQGSPLDVLKDERVQYWIENYRNLLDAWRFWHKRAEFDIHRSKLDPSSKPLAQVFVSCNFCGKSISYSCSAVPHQGRGFSQYGVSGSPTKSKVTSCPGCRKPLPRCALCLINMGTPVSSCPGGTKSDEKVDLSKDKKLAQFNNWFTWCHNCRHGGHAGHMLSWFRDHAECPVSACTCKCMQLDTTGNLVPAETVQP [MIOS] | 53.9 | 53 | -0.829 | -1.48 | 0.0327 | -0.271 |
| EHBP1 | 50.3 | 52.4 | 0.393 | 0.935 | -0.0155 | 0.0745 |
| MSNTTVVPSTAGPGPSGGPGGGGGGGGGGGGTEVIQVTNVSPSASSEQMRTLFGFLGKIDELRLFPPDDSPLPVSSRVCFVKFHDPDSAVVAQHLTNTVFVDRALIVVPYAEGVIPDEAKALSLLAPANAVAGLLPGGGLLPTPNPLTQIGAVPLAALGAPTLDPALAALGLPGANLNSQSLAADQLLKLMSTVDPKLNHVAAGLVSPSLKSDTSSKEIEEAMKRVREAQSLISAAIEPDKKEEKRRHSRSRSRSRRRRTPSSSRHRRSRSRSRRRSHSKSRSRRRSKSPRRRRSHSRERGRRSRSTSKTRDKKKEDKEKKRSKTPPKSYSTARRSRSASRERRRRRSRSGTRSPKKPRSPKRKLSRSPSPRRHKKEKKKDKDKERSRDERERSTSKKKKSKDKEKDRERKSESDKDVKQVTRDYDEEEQGYDSEKEKKEEKKPIETGSPKTKECSVEKGTGDSLRESKVNGDDHHEEDMDMSD [SRSF11] | 49.7 | 50.4 | 1.04 | 3.54 | 0.175 | -0.739 |
| TOP2A | 51 | 52.8 | -0.453 | 3.49 | -0.207 | -2.15 |
| MADDAGLETPLCSEQFGSGEARGCRAAADGSLQWEVGGWRWWGLSRAFTVKPEGRDAGEVGASGAPSPPLSGLQAVFLPQGFPDSVSPDYLPYQLWDSVQAFASSLSGSLATQAVLLGIGVGNAKATVSAATATWLVKDSTGMLGRIVFAWWKGSKLDCNAKQWRLFADILNDVAMFLEIMAPVYPICFTMTVSTSNLAKCIVSVAGGATRAALTVHQARRNNMADVSAKDSSQETLVNLAGLLVSLLMLPLVSGCPGFSLGCFFFLTALHIYANYRAVRALVMETLNEGRLRLVLKHYLQRGEVLDPTAANRMEPLWTGFWPAPSLSLGVPLHRLVSSVFELQQLVEGHQESYLLCWDQSQNQVQVVLNQKAGPKTILRAATHGLMLGALQGDGPLPAELEELRNRVRAGPKKESWVVVKETHEVLDMLFPKFLKGLQDAGWKTEKHQLEVDEWRATWLLSPEKKVL [C16ORF58] | 53.7 | 53.8 | -0.365 | 0.0232 | -0.031 | -0.224 |
| MEMTEMTGVSLKRGALVVEDNDSGVPVEETKKQKLSECSLTKGQDGLQNDFLSISEDVPRPPDTVSTGKGGKNSEAQLEDEEEEEEDGLSEECEEEESESFADMMKHGLTEADVGITKFVSSHQGFSGILKERYSDFVVHEIGKDGRISHLNDLSIPVDEEDPSEDIFTVLTAEEKQRLEELQLFKNKETSVAIEVIEDTKEKRTIIHQAIKSLFPGLETKTEDREGKKYIVAYHAAGKKALANPRKHSWPKSRGSYCHFVLYKENKDTMDAINVLSKYLRVKPNIFSYMGTKDKRAITVQEIAVLKITAQRLAHLNKCLMNFKLGNFSYQKNPLKLGELQGNHFTVVLRNITGTDDQVQQAMNSLKEIGFINYYGMQRFGTTAVPTYQVGRAILQNSWTEVMDLILKPRSGAEKGYLVKCREEWAKTKDPTAALRKLPVKRCVEGQLLRGLSKYGMKNIVSAFGIIPRNNRLMYIHSYQSYVWNNMVSKRIEDYGLKPVPGDLVLKGATATYIEEDDVNNYSIHDVVMPLPGFDVIYPKHKIQEAYREMLTADNLDIDNMRHKIRDYSLSGAYRKIIIRPQNVSWEVVAYDDPKIPLFNTDVDNLEGKTPPVFASEGKYRALKMDFSLPPSTYATMAIREVLKMDTSIKNQTQLNTTWLR [PUS7] | 52.3 | 52.2 | 0.213 | 0.4 | -0.141 | 0.055 |
| MAAAAGPGAALSPRPCDSDPATPGAQSPKDDNEDNSNDGTQPSKRRRMGSGDSSRSCETSSQDLGFSYYPAENLIEYKWPPDETGEYYMLQEQVSEYLGVTSFKRKYPDLERRDLSHKEKLYLRELNVITETQCTLGLTALRSDEVIDLMIKEYPAKHAEYSVILQEKERQRITDHYKEYSQMQQQNTQKVEASKVPEYIKKAAKKAAEFNSNLNRERMEERRAYFDLQTHVIQVPQGKYKVLPTERTKVSSYPVALIPGQFQEYYKRYSPDELRYLPLNTALYEPPLDPELPALDSDGDSDDGEDGRGDEKRKNKGTSDSSSGNVSEGESPPDSQEDSFQGRQKSKDKAATPRKDGPKRSVLSKSVPGYKPKVIPNAICGICLKGKESNKKGKAESLIHCSQCENSGHPSCLDMTMELVSMIKTYPWQCMECKTCIICGQPHHEEEMMFCDMCDRGYHTFCVGLGAIPSGRWICDCCQRAPPTPRKVGRRGKNSKEG [PHF10] | 49.5 | 49.4 | 1.13 | 2.91 | 0.132 | 0.128 |
| MCGRTSCHLPRDVLTRACAYQDRRGQQRLPEWRDPDKYCPSYNKSPQSNSPVLLSRLHFEKDADSSERIIAPMRWGLVPSWFKESDPSKLQFNTTNCRSDTVMEKRSFKVPLGKGRRCVVLADGFYEWQRCQGTNQRQPYFIYFPQIKTEKSGSIGAADSPENWEKVWDNWRLLTMAGIFDCWEPPEGGDVLYSYTIITVDSCKGLSDIHHRMPAILDGEEAVSKWLDFGEVSTQEALKLIHPTENITFHAVSSVVNNSRNNTPECLAPVDLVVKKELRASGSSQRMLQWLATKSPKKEDSKTPQKEESDVPQWSSQFLQKSPLPTKRGTAGLLEQWLKREKEEEPVAKRPYSQ [HMCES] | 48.6 | 48.4 | 1.11 | 1.51 | -0.0383 | 0.0685 |
| MAARSWQDELAQQAEEGSARLREMLSVGLGFLRTELGLDLGLEPKRYPGWVILVGTGALGLLLLFLLGYGWAAACAGARKKRRSPPRKREEAAAVPAAAPDDLALLKNLRSEEQKKKNRKKLSEKPKPNGRTVEVAEGEAVRTPQSVTAKQPPEIDKKNEKSKKNKKKSKSDAKAVQNSSRHDGKEVDEGAWETKISHREKRQQRKRDKVLTDSGSLDSTIPGIENTITVTTEQLTTASFPVGSKKNKGDSHLNVQVSNFKSGKGDSTLQVSSGLNENLTVNGGGWNEKSVKLSSQISAGEEKWNSVSPASAGKRKTEPSAWSQDTGDANTNGKDWGRSWSDRSIFSGIGSTAEPVSQSTTSDYQWDVSRNQPYIDDEWSGLNGLSSADPNSDWNAPAEEWGNWVDEERASLLKSQEPIPDDQKVSDDDKEKGEGALPTGKSKKKKKKKKKQGEDNSTAQDTEELEKEIREDLPVNTSKTRPKQEKAFSLKTISTSDPAEVLVKNSQPIKTLPPATSTEPSVILSKSDSDKSSSQVPPILQETDKSKSNTKQNSVPPSQTKSETSWESPKQIKKKKKARRET [MTDH] | 59.1 | 58.3 | -2.14 | -6.31 | 0.414 | -0.39 |
| MGVRGLQGFVGSTCPHICTVVNFKELAEHHRSKYPGCTPTIVVDAMCCLRYWYTPESWICGGQWREYFSALRDFVKTFTAAGIKLIFFFDGMVEQDKRDEWVKRRLKNNREISRIFHYIKSHKEQPGRNMFFIPSGLAVFTRFALKTLGQETLCSLQEADYEVASYGLQHNCLGILGEDTDYLIYDTCPYFSISELCLESLDTVMLCREKLCESLGLCVADLPLLACLLGNDIIPEGMFESFRYKCLSSYTSVKENFDKKGNIILAVSDHISKVLYLYQGEKKLEEILPLGPNKALFYKGMASYLLPGQKSPWFFQKPKGVITLDKQVISTSSDAESREEVPMCSDAESRQEVPMCTGPESRREVPVYTDSEPRQEVPMCSDPEPRQEVPTCTGPESRREVPMCSDPEPRQEVPMCTGPEARQEVPMYTDSEPRQEVPMYTDSEPRQEVPMYTGSEPRQEVPMYTGPESRQEVPMYTGPESRQEVLIRTDPESRQEIMCTGHESKQEVPICTDPISKQEDSMCTHAEINQKLPVATDFEFKLEALMCTNPEIKQEDPTNVGPEVKQQVTMVSDTEILKVARTHHVQAESYLVYNIMSSGEIECSNTLEDELDQALPSQAFIYRPIRQRVYSLLLEDCQDVTSTCLAVKEWFVYPGNPLRHPDLVRPLQMTIPGGTPSLKILWLNQEPEIQVRRLDTLLACFNLSSSREELQAVESPFQALCCLLIYLFVQVDTLCLEDLHAFIAQALCLQGKSTSQLVNLQPDYINPRAVQLGSLLVRGLTTLVLVNSACGFPWKTSDFMPWNVFDGKLFHQKYLQSEKGYAVEVLLEQNRSRLTKFHNLKAVVCKACMKENRRITGRAHWGSHHAGRWGRQGSSYHRTGSGYSRSSQGQPWRDQGPGSRQYEHDQWRRY [FAM120B] | 50.2 | 49.1 | 1.29 | 1.3 | -0.0624 | -0.319 |
| MSRARSHLRAALFLAAASARGITTQVAARRGLSAWPVPQEPSMEYQDAVRMLNTLQTNAGYLEQVKRQRGDPQTQLEAMELYLARSGLQVEDLDRLNIIHVTGTKGKGSTCAFTECILRSYGLKTGFFSSPHLVQVRERIRINGQPISPELFTKYFWRLYHRLEETKDGSCVSMPPYFRFLTLMAFHVFLQEKVDLAVVEVGIGGAYDCTNIIRKPVVCGVSSLGIDHTSLLGDTVEKIAWQKGGIFKQGVPAFTVLQPEGPLAVLRDRAQQISCPLYLCPMLEALEEGGPPLTLGLEGEHQRSNAALALQLAHCWLQRQDRHGAGEPKASRPGLLWQLPLAPVFQPTSHMRLGLRNTEWPGRTQVLRRGPLTWYLDGAHTASSAQACVRWFRQALQGRERPSGGPEVRVLLFNATGDRDPAALLKLLQPCQFDYAVFCPNLTEVSSTGNADQQNFTVTLDQVLLRCLEHQQHWNHLDEEQASPDLWSAPSPEPGGSASLLLAPHPPHTCSASSLVFSCISHALQWISQGRDPIFQPPSPPKGLLTHPVAHSGASILREAAAIHVLVTGSLHLVGGVLKLLEPALSQ [FPGS] | 49.7 | 48.1 | 0.537 | 1.93 | -0.165 | 0.114 |
